Test results: PMC9546227, “Cysteines have a role in conformation of the UVR8 photoreceptor” (The Plant Journal, 2022)
Where a chain is given by its changes, count along the chain named. Numbers in names are those of the source.

Tests used:
[1] = target: T1, UV … LOCUS 8 (UVR8), wild-type, purified (Arabidopsis thaliana), Q9FN03; assay: SDS-PAGE with non-boiled samples; purified protein not exposed to UV-B; 10% gel, Coomassie stain; dimer to monomers; details: remark: other sources report otherwise
T1 chain: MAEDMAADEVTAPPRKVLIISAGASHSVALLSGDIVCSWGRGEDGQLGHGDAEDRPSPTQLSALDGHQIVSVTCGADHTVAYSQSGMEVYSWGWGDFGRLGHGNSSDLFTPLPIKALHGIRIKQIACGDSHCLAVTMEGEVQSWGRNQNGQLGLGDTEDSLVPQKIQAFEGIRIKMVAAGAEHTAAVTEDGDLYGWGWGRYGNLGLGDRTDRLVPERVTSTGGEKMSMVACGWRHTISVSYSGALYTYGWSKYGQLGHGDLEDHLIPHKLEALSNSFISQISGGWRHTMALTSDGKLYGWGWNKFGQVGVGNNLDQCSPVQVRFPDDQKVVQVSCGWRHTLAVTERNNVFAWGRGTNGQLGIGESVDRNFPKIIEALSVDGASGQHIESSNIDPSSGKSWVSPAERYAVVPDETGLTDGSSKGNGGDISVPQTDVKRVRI

[2] = target: the molecule itself; assay: as above
[3] = target: the molecule itself; assay: SDS-PAGE with non-boiled samples; protein extracts of 14-day-old plants not exposed to UV-B (also after return to white light following UV-B, re-dimerization); immunoblot with anti-UVR8-C; dimer to monomers

B1: UV … LOCUS 8 (UVR8), wild-type, purified, Q9FN03 1-440 (natural protein)
chain: T1 chain
[1]
  stoichiometry N: 2

B2: UVR8^C231S,C335S, purified (natural protein, Arabidopsis thaliana, UniProt Q9FN03 1-440, looked up)
chain: T1 chain with C231S, C335S
notes: UVR8, Arabidopsis thaliana, with C231S and C335S; also called UVR8^SS; source: E. coli, purified (as detailed by Christie et al., 2012)
[2]
  stoichiometry N: 2

B3: GFP-UVR8^C231S,C335S (uvr8-1/35Spro:GFP-UVR8^C231S,C335S plants) (natural protein, Arabidopsis thaliana, UniProt Q9FN03 1-440, looked up)
chain: T1 chain with C231S, C335S
notes: UVR8, Arabidopsis thaliana, with C231S and C335S; Cloned into the pEZR(K)L-C vector by the methods of Cloix et al. (2012); also called GFP-UVR8^SS; source: transgenic Arabidopsis uvr8-1/CaMV35Spro:GFP-UVR8^C231S,C335S, in protein extract
[3]
  stoichiometry N: 2
